Patent US20240116985A1 (published 2024)
Starred links: 1 amine or outer side, 2 acyl side, 3 side chain; linkers in the order of their positions; H or OH if unused. Positions of bridges follow the written chain, without caps; N, C: chain ends. Non-standard residues stand in square brackets, D forms with d. Primed or numbered codes have the meaning given here. PyrS2″ = (S)-3-amino-1-((pent-4-en-1-yloxy)carbonyl)pyrrolidine-3-carboxylic acid (stapling residue), C=CCCCOC(=O)N1CC[C@@](N[*:1])(C(=O)[*:2])C1; B5(4) = 2,2-bis(4-pentenyl)glycine = 2-amino-2-(pent-4-en-1-yl)hept-6-enoic acid (stitching residue), C=CCCCC(CCCC=C)(N[*:1])C(=O)[*:2]; B5(3) = 2,2-bis(4-pentenyl)glycine (stitching residue), C=CCCCC(CCCC=C)(N[*:1])C(=O)[*:2]; Phe(3-COOH) = N[C@@H](Cc1cccc(C(=O)O)c1)C(=O)O; Phe(2-Cl) = N[C@@H](Cc1ccccc1Cl)C(=O)O; Met(O2) = CS(=O)(=O)CC[C@H](N)C(=O)O; Bta = N[C@@H](Cc1csc2ccccc12)C(=O)O; αAllylPro = C=CC[C@@]1(C(=O)O)CCCN1; tBuAla = CC(C)(C)C[C@H](N)C(=O)O; 3Thi = N[C@@H](Cc1ccsc1)C(=O)O; PyrS2(4) = not defined here

Columns and labels:
Experiment in all cases: cell-based or functional assay
[1] = target: T1, beta-catenin in DLD1 TCF/LEF luciferase reporter cells (Homo sapiens (Human), UniProt P35222 1-781)
T1 sequence: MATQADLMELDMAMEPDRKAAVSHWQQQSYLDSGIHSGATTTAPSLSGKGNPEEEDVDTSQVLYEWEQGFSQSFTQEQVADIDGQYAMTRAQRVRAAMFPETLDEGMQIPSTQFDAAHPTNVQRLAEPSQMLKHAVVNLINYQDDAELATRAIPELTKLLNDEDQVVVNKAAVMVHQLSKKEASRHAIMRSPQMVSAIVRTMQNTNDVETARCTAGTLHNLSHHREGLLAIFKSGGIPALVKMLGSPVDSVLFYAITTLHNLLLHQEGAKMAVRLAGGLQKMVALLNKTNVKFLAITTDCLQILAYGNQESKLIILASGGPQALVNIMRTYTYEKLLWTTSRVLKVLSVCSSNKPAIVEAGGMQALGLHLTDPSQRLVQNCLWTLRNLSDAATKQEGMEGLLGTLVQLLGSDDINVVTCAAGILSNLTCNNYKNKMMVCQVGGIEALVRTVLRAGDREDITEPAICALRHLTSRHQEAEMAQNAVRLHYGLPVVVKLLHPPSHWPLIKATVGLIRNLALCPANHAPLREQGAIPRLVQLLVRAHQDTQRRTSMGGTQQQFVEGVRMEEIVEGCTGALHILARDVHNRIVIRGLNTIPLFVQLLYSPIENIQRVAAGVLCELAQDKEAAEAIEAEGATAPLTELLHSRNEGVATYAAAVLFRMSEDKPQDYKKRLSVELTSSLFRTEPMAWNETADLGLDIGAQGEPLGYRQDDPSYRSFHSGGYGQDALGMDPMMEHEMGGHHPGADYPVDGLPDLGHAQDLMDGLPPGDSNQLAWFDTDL

[2] = target: T2, B-cat-Halo (beta-catenin HaloTag construct expressed in HEK293 cells) (UniProt P35222 1-781)
T2 sequence (looked up): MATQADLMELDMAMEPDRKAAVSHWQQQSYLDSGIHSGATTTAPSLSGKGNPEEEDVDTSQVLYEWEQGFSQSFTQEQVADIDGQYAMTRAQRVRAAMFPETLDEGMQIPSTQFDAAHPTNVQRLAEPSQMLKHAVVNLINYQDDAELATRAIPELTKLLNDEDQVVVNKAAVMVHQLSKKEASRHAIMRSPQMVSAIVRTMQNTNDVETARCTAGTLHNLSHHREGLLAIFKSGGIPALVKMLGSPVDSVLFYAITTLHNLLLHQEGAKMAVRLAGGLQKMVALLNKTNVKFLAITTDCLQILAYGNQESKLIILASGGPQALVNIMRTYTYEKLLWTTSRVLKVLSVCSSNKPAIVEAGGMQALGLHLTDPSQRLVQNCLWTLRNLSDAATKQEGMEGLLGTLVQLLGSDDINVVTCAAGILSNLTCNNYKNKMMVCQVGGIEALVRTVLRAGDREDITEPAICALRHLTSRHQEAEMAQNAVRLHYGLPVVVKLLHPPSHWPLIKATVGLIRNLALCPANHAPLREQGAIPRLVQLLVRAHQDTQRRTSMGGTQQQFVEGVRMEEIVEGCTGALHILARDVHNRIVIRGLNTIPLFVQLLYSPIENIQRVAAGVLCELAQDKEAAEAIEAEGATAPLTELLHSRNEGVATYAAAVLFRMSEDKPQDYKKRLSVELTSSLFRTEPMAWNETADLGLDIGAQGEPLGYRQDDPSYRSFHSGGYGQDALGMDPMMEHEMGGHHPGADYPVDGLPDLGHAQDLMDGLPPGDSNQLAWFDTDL

[3] = target: T3, beta-catenin in DLD1 TCF/LEF luciferase reporter cells (UniProt P35222 2-781)
T3 sequence (looked up): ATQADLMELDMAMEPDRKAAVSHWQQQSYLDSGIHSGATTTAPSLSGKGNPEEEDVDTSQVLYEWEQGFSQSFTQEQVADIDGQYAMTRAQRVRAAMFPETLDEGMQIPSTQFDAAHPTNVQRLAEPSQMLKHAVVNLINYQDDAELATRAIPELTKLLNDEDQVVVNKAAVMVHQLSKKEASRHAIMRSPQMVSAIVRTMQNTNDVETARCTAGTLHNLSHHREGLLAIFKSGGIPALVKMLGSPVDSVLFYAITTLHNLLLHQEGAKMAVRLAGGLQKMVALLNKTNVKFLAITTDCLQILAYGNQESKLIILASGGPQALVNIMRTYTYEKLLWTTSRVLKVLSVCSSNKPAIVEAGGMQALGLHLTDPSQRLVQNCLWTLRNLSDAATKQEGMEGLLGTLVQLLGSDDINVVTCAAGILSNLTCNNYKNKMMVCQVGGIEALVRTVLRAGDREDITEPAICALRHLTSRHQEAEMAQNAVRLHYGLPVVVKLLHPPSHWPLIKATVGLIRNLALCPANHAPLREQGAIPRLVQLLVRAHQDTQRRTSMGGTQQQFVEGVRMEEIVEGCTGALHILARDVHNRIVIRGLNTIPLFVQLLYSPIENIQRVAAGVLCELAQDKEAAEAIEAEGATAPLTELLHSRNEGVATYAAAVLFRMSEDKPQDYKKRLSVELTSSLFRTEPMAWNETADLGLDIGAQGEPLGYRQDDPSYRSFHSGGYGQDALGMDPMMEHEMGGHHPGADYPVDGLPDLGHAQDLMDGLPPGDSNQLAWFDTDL

B-cat-Halo = target: T4, B-cat-Halo (UniProt P35222 1-781)
T4 sequence (looked up): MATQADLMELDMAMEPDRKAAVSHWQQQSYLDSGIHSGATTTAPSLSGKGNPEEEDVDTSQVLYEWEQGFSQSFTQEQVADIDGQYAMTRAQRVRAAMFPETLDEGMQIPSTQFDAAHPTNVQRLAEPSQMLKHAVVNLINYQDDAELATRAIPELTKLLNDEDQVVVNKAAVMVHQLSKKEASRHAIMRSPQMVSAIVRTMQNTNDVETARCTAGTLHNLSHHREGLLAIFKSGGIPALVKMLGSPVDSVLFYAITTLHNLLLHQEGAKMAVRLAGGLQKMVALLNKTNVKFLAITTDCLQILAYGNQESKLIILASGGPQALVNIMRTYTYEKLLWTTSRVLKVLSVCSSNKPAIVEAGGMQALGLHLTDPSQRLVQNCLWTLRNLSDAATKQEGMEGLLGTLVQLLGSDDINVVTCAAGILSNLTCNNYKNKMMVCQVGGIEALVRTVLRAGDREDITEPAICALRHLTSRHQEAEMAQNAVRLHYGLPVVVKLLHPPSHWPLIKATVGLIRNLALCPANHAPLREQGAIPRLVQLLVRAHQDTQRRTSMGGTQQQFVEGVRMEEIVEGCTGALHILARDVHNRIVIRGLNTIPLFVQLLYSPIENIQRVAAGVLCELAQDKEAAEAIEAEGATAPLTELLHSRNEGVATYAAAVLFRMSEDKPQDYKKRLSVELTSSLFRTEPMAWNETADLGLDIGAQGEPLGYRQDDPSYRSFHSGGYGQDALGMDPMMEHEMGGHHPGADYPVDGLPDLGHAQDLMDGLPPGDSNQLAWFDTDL

[4] = target: T5, beta-catenin in DLD1 TCF/LEF luciferase reporter cells (UniProt P35222 2-781); remark: listed apart in the source
T5 sequence (looked up): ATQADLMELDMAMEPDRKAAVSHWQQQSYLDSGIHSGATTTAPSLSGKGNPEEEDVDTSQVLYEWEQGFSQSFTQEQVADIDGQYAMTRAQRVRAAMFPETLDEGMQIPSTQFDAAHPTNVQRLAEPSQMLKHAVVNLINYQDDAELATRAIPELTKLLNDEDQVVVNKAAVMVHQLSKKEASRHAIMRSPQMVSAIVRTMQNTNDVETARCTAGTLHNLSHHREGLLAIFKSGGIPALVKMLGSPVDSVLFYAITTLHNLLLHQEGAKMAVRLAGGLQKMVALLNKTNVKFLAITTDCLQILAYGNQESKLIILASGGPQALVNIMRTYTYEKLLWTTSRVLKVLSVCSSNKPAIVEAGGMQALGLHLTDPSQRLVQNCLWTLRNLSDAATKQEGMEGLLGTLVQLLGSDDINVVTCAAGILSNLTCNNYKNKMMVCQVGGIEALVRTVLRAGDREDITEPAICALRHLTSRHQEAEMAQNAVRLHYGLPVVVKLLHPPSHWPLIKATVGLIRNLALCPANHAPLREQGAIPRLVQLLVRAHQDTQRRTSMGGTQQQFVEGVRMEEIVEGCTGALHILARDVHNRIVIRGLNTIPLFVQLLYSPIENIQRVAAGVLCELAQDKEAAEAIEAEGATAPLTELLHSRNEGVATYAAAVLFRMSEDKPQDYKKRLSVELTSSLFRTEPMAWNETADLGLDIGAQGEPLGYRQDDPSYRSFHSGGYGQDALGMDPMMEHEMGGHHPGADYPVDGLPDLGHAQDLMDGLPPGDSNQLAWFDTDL

Ac-[αAllylPro]D[tBuAla][B5(3)]D[Phe(3-COOH)]AAFL[PyrS2″][Phe(2-Cl)][Bta]NAA[dA]-NH2 (staple 1-4, 4-11) [I-2041]
DLD1 4% Abs IC50 [1]: 1900 nM

B1: I-2061 (peptide)
peptide: Ac-[αAllylPro]D[tBuAla][B5(4)]D[Phe(3-COOH)]AAFL[PyrS2(4)][3Thi][Bta][Met(O2)]-NH2
modifications: staple 1-4, 4-11; reading uncertain; also: printed as Ac-PL3-Asp-Npg-B5-Asp-3COOHF-Ala-Ala-Phe-Leu-PyrS2-3Thi-BztA-Met2O-NH2
NanoBRET Abs IC50 [2]: 1900 nM | DLD1 4% Abs IC50 [3]: 1800 nM

Ac-[αAllylPro]D[tBuAla][B5(3)]D[(Pfbn)GA]AAFL[PyrS2″][3Thi][Bta]Q-NH2 (staple 1-4, 4-11) [I-1632]
NanoBRET Abs IC50 (B-cat-Halo): 6500 nM | DLD1 4% Abs IC50 [4]: 2600 nM
